Laboratory results from the domain aggregation screens of Martell et al. (2025).

Test: soluble fraction after stress (log2 fold change); higher = more stays soluble; pooled small domains, quantitative proteomics
Details: stress: 75 degC
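Further: 20 min heating vs room temperature control held 20 min.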

Sequence | soluble fraction (log2)
HMENTVVMPNLLGKTMTEAKIELKDLSISITLKGSENSSQYAAGQIISQSVDSGTRVAVGSSVEVTIAGS | -0.843
HMENVIYGINGPVVTVRNSRSFSMMEMVFVGNERLVGEVIGITDKITTIQVYEETTGLRPGEPVYGTGSPM | -3.8
HMENVRKTEWVTISNDKSQTRTTVYFESGNQKLDKHPQIQGFEYQRTYVEGGVKYYLFVEKGTKLDE | 0.0189
HMENYGEAITYIHGMIEDSSEKMLAASKALKVNANTLIKFMKDPYSVAAHIRDRIVENLANLEKAVKAI | -0.254
HMENYYMPVVAGQSEQDAKSMLNAMKLSLSIQVQEQESDSVAKGLAIGTSPAAGSQIRKGSSVILYISKGA | -0.844
HMEPALYRLFMAHPELNASAVARRLGIAQSLLAQYISGSKKPSPERERMILTEIHKIGEELATAS | -0.938
HMEPAPPPAAPPADPELQKRIDKLVEYIGKNGPEFEAVIRDKQHDNPDYAFVFGGEGHAYYRYLLWLLPRP | -0.466
HMEPELLTTKQVASVMNIGEERARAILLSRGVQPVSLPWGKERKTLRWSRRAVMTVIDTLHAEAQAKAGV | -2.59
HMEPLPDIPRGTRVSHQTAPADGDMPERRETGWTMTEPIRAQDGLAYVGVSVYGRGVVMLPVNSLSII | -0.384
HMEPSAQEIANKLLGHVKSLGLPITGLSISYNSTSDLATVRGQVQSQADREKIILAVGNVDHVAKVDDQLT | -0.028
HMEPSQEFSLADMVAYDLTGYPKSAALRAAVGASLGIGYGNAKQFVYRLNHYGISKDDFHRAAQEALDGL | -1.1
HMEPTAEQLKAIRQFASVNGRSWKSELRYLWETGAYHRAALGGADPGYLQQVRNQFGPGWLRAFKISK | -1.87
HMEPTPREIVVQQLGYRGLEVLGNAEYQFPKETQIIILKLAELISSGSVTETLEGGKLLALFRGVGINVR | -1.55
HMEPVQPVMYSEFIESVERGEVVEATIQGDKIIATDRSGNRYTVVGSAKDPQLVGQLLERNVAFKFVEE | 0.118
HMEQAMIVILKENPDRRQLEFLTGWLQKQQIGIHISEGAHQTVLGLVGDATRLDIDMLKQMEIVEDVKRVQ | -0.823
HMEQGDTQQEIREKILNLLADGERHMITELKNIRTDQPIDDDKIVGKTLKTLLDEEEVYMDGSYIQLNG | 0.653
HMEQIGSIIKDIRKKNNLTQNEFASILGVTFQAVSKWENDKSIPDITILKDISNKFNVDLNYLISG | -0.405
HMEQISVPIFTNDELVTFARSYSGELGYKIDDMAVLALYNRISNIQRLDQATTLTEVKDIVDEAVAKSE | 0.096
HMEQLESAVASRTLIGQAQGVIMERYGLSAPNAFSVLSRISQDSNTKLAEVAQQIVATRRIPG | -0.093
HMEQLNKNIKFDNFLESLNFINKVSEVAEEENHHPDLKFGWGYADITIFTHAIKGLSEGDFVLAAKIDVI | 0.19
HMEQMSLISKKKGERIDKFLGENLGDLSRSYIQKLLKDGLILVNGKKVKANYKLNEGDQIDVEVPDP | 0.327
HMEQMSPYPNPSKGKIQFHNQEPMDIKVFNSLGQIVFEQRILSRAILDLSRLSPGQYIVQAGEQKNIWIK | -1.64
HMEQPPVPSVSITAALGSAVARRLAPHGFQKMPDLVDAYRAGKLAQISGIGGTTLDLIREWLTANARQQ | -0.441
HMEQQEFIVPHDSEGQRLDLFLVSVLGTHSRSQIRKLIVNGHVKLENRAPRPNLPVRAGESVVVSMPEPT | -0.849
HMEQQSIYLENRERMTINQVIDVDAFDEETLWANLKEGAVEISGSGLHIEKLDLAEGVLIVSGIIRAFAYV | -0.856
HMEQQVDYTQFIQDVRQGQIREVDVDRNGVINGIKRSGENFVTVIPGGYDRDLINDLVKQGVNATGEL | 0.25
HMEQVKFFDAKVITTPPNRLKTRYTPAGNLRPEADWLQSGAIVPVYETSGAGWYRIGYQTWASAEWMQRLD | -2.8
HMEQVSDPALLERYAKEVVAASPKAVADYQAGNAKAFQALVGQMMKRTKGKGDPALIREILQKL | 0.0645

Sequence | soluble fraction (log2)
HMEQVTMSNFLDKWGTSTKSPNAWYTSLSPMQKAEAKLLKEESGLTWNKWYEKNIYVGDGTN | 0.985
HMERAYGVRVSLRLDDPFRTLLGADWSRTHWFASAEERDAALLEMSRKHEFSRPGDQPALVYEKVQN | -1.26
HMERDVNQLTPRERDILKLIAQGLPNKMIARRLDITESTVKVHVKHMLKKMKLKSRVEAAVWVHQERI | -1.55
HMEREQNILQGREVVERELRRLGLAEAYTVSDIAKALKFDDEEQFLAKVGFGDIQSRQISGAIALMEKN | -0.0753
HMERFLENAIPVLGETGLDIKSATEDFENALIRQALHLSGGNKNRAATLLGLKRTTFVEMLKRKSL | -1.12
HMERFMEFVITDTQQGQRLDVVLTETTEHLGSRSHMQRSIRAGLVSIDGITTTRASTKVSSGQIIRVEPT | -1.42
HMERGEFQKLGRATLEQTLARAGKTLAEVSLKAMLETFAFAAEEDLYEALGRGRVSAAKVGETLFPALKGR | -0.85
HMERKMKNNISDQTTYDTDKILNFNGKGYLNGLVIPNNYQIKEEGYYVFRQVALDGREQILYFTIQDLS | -1.98
HMERLSVSMGDMVVFVRDAVEAFRGLVKEKGITLTFESKVEHFYMNYDHDKVYKVVNNLLSNAVKFT | -0.145
HMERLTVVPELLKRSLSEAQPLVTSARLRLEVSGGAPEDTSRAIVVGQKPPPGTRVQVGTTVIVTVQIQRP | -0.534
HMERPYNGKQMEYHEGGVEKKETLFVEGGLSRVIQWDESGQKRSEVNISPTGVRREQYWDSSGKAIAKPS | 0.14
HMERQAEAWTNRASALISLGRDEEALEAADRAIELDPRLSKAWIDRSTALSNLGRNDEANEAIQMAMFL | -0.12
HMERQILFTKEDLIEFGLSGGTDSRKRRDVLGHILGIGYSNSKQFLNRLNNFGVTREEFLSAIERIG | -0.816
HMERTVEVVDINDVFSQFLRLYSRERAAGLLSVFKRVEHGLSWQGNPVLLERILSNVFENAIKYAA | 0.149
HMERVIYLLNGREVPAAEIRAAEPEALTVDRFYSSENLPAEYRDRNPELVVAFTAEEPLRHY | 0.512
HMERVNILEKATKDIPNVEVKAFEGLSVNFARENHAQVIVRGLRAVTDFEYELQMAQTNRVLAPDVDTVF | -0.0564
HMERYSVQVGSFRNMRYAERLKQELQGEDFPAYIEKSGEFNRVRVGKGLTLEEATQLEQVLRKSGYQTVIV | -0.705
HMESIGANIRRLRKERNMSQDELARKAFTNRSNINRYESGKMVPSADTTEKIEEALGVPAGTLAQ | -0.214
HMESKDIRYVQLQTVSPEEVLQALALIMPRSDVYVEPTGKLVVLHGSKETLDRAEELILALDNAV | -0.116
HMESKITTAEAAAILNASPQFVRVAMQRGILNIGIAMQMPNSNKWTYNISPKLLGEYSGKNIEYELERLR | -1.65
HMESRTQVYDFYKDLFREKRRPLRAEEMLSALKSQRGIVGVNQYQIIEQHGIVRLSGSGRSALYWDTDLGS | -2.69
HMESSREVSFSEFMKQIDSGRVSSVKLDGETIYVRNSDGTSYKVIQPLGTDLIGVLRKSDIDVQAIKQ | 0.107
HMESYNIVEQVLTKKILSKGNTLAKLSNEFDGLVMLVIRGDEFIIPNGETLLFEKDILVINNGP | -2.68
HMESYTGLAVTEDDDGWSNVRSGNSTSYSILFKIYAGEKFNILSNDGKWSYIDFNGRKGYIHNSIIRKY | -3.82
HMETAADLLAAAKENPARFGILASEGRFGLGYMNDDLLDPDNLVAISREEADDLRGLGVYFHNLD | 0.293
HMETALYVEDLDRAVRFYESVMGLNTMSRGVRLVALDAGEGTVLLLFLRGATTSGASFEGGWIPPH | 0.05
HMETDNEKVRTAFQNGLAAYREQDWDRAEAAFGAVLAEMPEDRPSLVYLERIAHLRKKAPPGAWDGVWI | -0.335
